Data on eight molecules can be found in patent US8486893B2, “Treatment of conditions involving demyelination” (Biogen Idec MA Inc., priority 2004, dated 2013).

What all share (format): cell-based, rat
For assay [1], the system named is co-cultures of dorsal root ganglion (DRG) neurons and oligodendrocytes. Description: In vitro myelination in co-cultures of DRG neurons and oligodendrocytes. The note with it: for expression of MBP by western blot: 4-week-old treated cocultures, 10 μg/ml for Fc fusions; for number of myelinating MBP+ cells compared with controls: cocultures infected with lentivirus for two weeks, FIG. 10E; for MBP in cultures by western blot: cocultures infected with lentivirus, FIG. 10F. The protocol: The role of Sp35 in myelination was examined in vitro by treating co-cultures of dorsal root ganglion (DRG) neurons and oligodendrocytes with Sp35-Fc and testing for myelination by immunohistochemistry and electron microscopy. For these studies, it was necessary to first generate primary cultures of DRG neurons and of oligodendrocytes.
Female Long Evans rat E14-E17 embryonic dorsal root ganglia were cultured as described by Plant et al., J. Neurosci. 22:6083-91 (2002). Dissected DRGs were plated on poly-L-lysine-coated cover slips (100 μg/ml) for 2 weeks in the presence of fluorodeoxyuridine for days 2-6 and days 8-11 in NLA medium containing 1× B27, 100 ng/ml NGF (Invitrogen).
A2B5^+ oligodendrocytes were prepared as described in Example 1, and were harvested by trypsinization.
For coculture studies, A2B5^+ oligodendrocytes were added to DRG neuron drop cultures in the presence or absence of 10 μg/ml Sp35-Fc. The culture medium (Neurobasal medium supplemented with B27 and 100 ng/ml NGF) was changed, and fresh Sp35-Fc was added to the cells every 3 d. To identify changes in myelination, 2-week-old cultures were stained by immunohistochemical staining (“IHC”) for neurofilaments with anti-βIII-tubulin antibody to identify axons, or anti-MBP antibody to identify oligodendrocytes., and 4-week-old cultures were subjected to SDS-PAGE followed by western blot analyses to quantify the MBP. In selected examples, cells were fixed for electron microscopy studies by adding 2.5% gluteraldehyde directly onto the cover slips. Myelinated axons in the 2-week-old cultures were quantified by counting the number of myelinated internode bundles that were derived from single MBP^+ oligodendrocytes. Samples were analyzed in duplicate. Error bars denote individual determinations. P values in all studies were determined using a one-way analysis of variance.
Several peptides containing portions of the Ig domain of Sp35 were examined in vitro, by treating co-cultures of dorsal root ganglion (DRG) neurons and oligodendrocytes with Sp35 Ig peptides and testing for myelination as described in Example 5.
For co-culture studies, A2B5^+ oligodendrocytes were added to DRG neuron drop cultures in the presence or absence of 10 μg/ml Sp35-Ig-Fc (Sp35 amino acids 417-493 fused to Fc). The culture medium (Neurobasal medium supplemented with B27 and 100 ng/ml NGF) was changed, and fresh Sp35-Ig-Fc was added to the cells every 3 d. To identify changes in myelination, 2-week-old cultures were stained by immunohistochemical staining (“IHC”) for neurofilaments with anti-βIII-tubulin antibody to identify axons, or anti-MBP antibody to identify oligodendrocytes and 4-week-old cultures were subjected to SDS-PAGE followed by western blot analyses to quantify the MBP.
We performed experiments to address the relative contributions to the myelination process of Sp35 in DRG neurons as compared to oligodendrocytes. We infected DRG neurons, oligodendrocytes and co-cultures (prepared as described in Example 5) with the FL-Sp35 and DN-Sp35 lentiviral vectors described in Example 1 and performed immunohistochemical straining for myelinated MBP cells after two weeks. A 2-fold increase in MBP levels in co-cultures where both cells express DN-Sp35 and a 2-fold decrease in MBP levels in co-cultures where both cells express FL-Sp35 was observed (FIG. 10G).
On the technique in general: A western blot detects proteins with antibodies after separation by electrophoresis.

A further assay concerns Fyn kinase. Description: Fyn expression and phosphorylation in oligodendrocytes by western blotting. To be noted: lentivirus-infected oligodendrocytes, FIG. 9B. The method, then: The activity of RhoA GTPase is regulated by Fyn kinase See Liang, X, et al., J. Neurosci. 24:7140-7149 (2004). Increased Fyn expression and phosphorylation correlate with oligodendrocyte differentiation. Id. See also Osterhout, D. J., et al., J. Cell Biol. 145:1209-1218 (1999). To test if Sp35 antagonists affect Fyn function, Fyn expression and phosphorylation were measured directly by western blotting.

The test system of a further assay is Oligodendrocytes. As to the kind of experiment: Oligodendrocyte differentiation after infection with FL-Sp35 or DN-Sp35 lentivirus. The note with it: lentivirus at 2 MOI per cell. The protocol:
Enriched populations of oligodendrocytes were grown from female Long Evans P2 rats as described by Conn, Meth. Neurosci. 2:1-4 (Academic Press; 1990) with modifications as follows. Briefly, the forebrain was dissected and placed in Hank's buffered salt solution (HBSS; Invitrogen). The tissue was cut into 1-mm fragments and was incubated at 37° C. for 15 min in 0.01% trypsin and 10 μg/ml DNase. Dissociated cells were plated on poly-L-lysine-coated T75 tissue culture flasks and were grown at 37° C. for 10 d in DMEM medium with 20% fetal calf serum (Invitrogen). Oligodendrocyte precursors (A2B5+) were collected by shaking the flask overnight at 200 rpm at 37° C., resulting in a 95% pure population. Cultures were maintained in high-glucose Dulbecco's modified Eagle's medium (DMEM) with FGF/PDGF (10 ng/ml; Peprotech) for 1 week. Removal of FGF/PDGF allowed A2B5^+ cells to differentiate into O4^+ premyelinating oligodendrocytes after 3-7 d, and to differentiate into O4^+ and MBP^+ mature oligodendrocytes after 7-10 d. These differentiation states are readily apparent from changes in morphology: A2B5^+ cells are bipolar in shape, O4^+ premyelinating oligodendrocytes have longer and more branched processes and MBP^+ mature oligodendrocytes contain myelin sheet structures between processes.
We constructed lentiviral vectors that express wild-type and a dominant-negative form of Sp35. […]

[2] abbreviates: co-cultures where both cell types express the construct, two weeks, FIG. 10G.

Positions of bridges follow the written chain, without caps; N, C: chain ends. No end group written: not given here. *: point of attachment. Biotin = O=C1N[C@H]2[C@H](CS[C@H]2CCCCC(=O)*)N1

In the case of “Ac-CLSPEKVC (SEQ ID NO:67) (disulfide 1-8 (inferred); listed as Homo sapiens) [cyclic control peptide, reference compound]”, the “expression of MBP by western blot” value in assay [1] is listed as “no increase in MBP”.
On the same count and under the same terms, to “Ac-CLSPRKHC (SEQ ID NO:66) (Ac-CLSPRKHC-NH2; disulfide 1-8 (inferred); listed as Homo sapiens) [cyclized LSPRKH peptide with terminal cysteines, acetyl at N-terminus and NH2 at C-terminus]” belongs “increased expression of MBP”; to “Biotin-GSGCKHSPLRC (SEQ ID NO:64; cysteine pairing not given here) [reference compound]”, “no increase in MBP”.
The same measure, in the same setting: to “Biotin-GSGCLSPEKVC (SEQ ID NO:65; cysteine pairing not given here) [reference compound]” belongs “no increase in MBP”; to “Biotin-GSGCLSPRKHC (SEQ ID NO:63; cysteine pairing not given here)”, “increased expression of MBP”.

B1: Sp35-Ig-Fc: Sp35 amino acids 417-493 fused to Fc (protein)
chain: RARIRDRKAQQVFVDEGHTVQFVCRADGDPPPAILWLSPRKHLVSAKSNGRLTVFPDGTLEVRYAQVQDNGTYLCIA
modifications: left off: a dimerising Fc or GST
notes: Sp35 amino acids 417-493 fused to Fc
Turning to B1, the “expression of MBP by western blot” value in assay [1] was “increased”. Also, in assay [1] (western blot, FIG. 15), the “increase in MBP protein compared with Sp35-Fc” value is on record as “comparable”.

B2: FL-Sp35: mouse full length Sp35, amino acid residues 34-614 of SEQ ID NO:2, expressed from lentiviral vector (protein, listed as Homo sapiens)
chain: TGCPPRCECSAQDRAVLCHRKRFVAVPEGIPTETRLLDLGKNRIKTLNQDEFASFPHLEELELNENIVSAVEPGAFNNLFNLRTLGLRSNRLKLIPLGVFTGLSNLTKLDISENKIVILLDYMFQDLYNLKSLEVGDNDLVYISHRAFSGLNSLEQLTLEKCNLTSIPTEALSHLHGLIVLRLRHLNINAIRDYSFKRLYRLKVLEISHWPYLDTMTPNCLYGLNLTSLSITHCNLTAVPYLAVRHLVYLRFLNLSYNPISTIEGSMLHELLRLQEIQLVGGQLAVVEPYAFRGLNYLRVLNVSGNQLTTLEESVFHSVGNLETLILDSNPLACDCRLLWVFRRRWRLNFNRQQPTCATPEFVQGKEFKDFPDVLLPNYFTCRRARIRDRKAQQVFVDEGHTVQFVCRADGDPPPAILWLSPRKHLVSAKSNGRLTVFPDGTLEVRYAQVQDNGTYLCIAANAGGNDSMPAHLHVRSYSPDWPHQPNKTFAFISNQPGEGEANSTRATVPFPFDIKTLIIATTMGFISFLGVVLFCLVLLFLWSRGKGNTKHNIEIEYVPRKSDAGISSADAPRKFNMKMI
In the case of B2, in the assay on Fyn kinase, the Fyn phosphorylation entry is “reduced by twofold” and the Fyn protein expression result is given as “reduced by twofold”. Moreover, in the assay with Oligodendrocytes, the “number of mature oligodendrocytes compared with the control” value is listed as “reduction in the number of mature oligodendrocytes”. Besides, the “decrease in MBP levels” value in assay [1] (setting [2]) worked out at 2 fold. Further, in assay [1], the “number of myelinating MBP+ cells compared with controls” value is recorded as “decreased the number of myelinating MBP^+ cells twofold” and the “MBP in cultures by western blot” value was “twofold reduction”. For the same molecule, the “basal levels of myelination in comparison to control (empty vector)” value in assay [1] (overexpression in either or both cell types) is recorded as “significantly descreased”.

B3: DN-Sp35: dominant negative Sp35, amino acid residues 34-581 of SEQ ID NO:2, expressed from lentiviral vector (protein, listed as Homo sapiens)
chain: TGCPPRCECSAQDRAVLCHRKRFVAVPEGIPTETRLLDLGKNRIKTLNQDEFASFPHLEELELNENIVSAVEPGAFNNLFNLRTLGLRSNRLKLIPLGVFTGLSNLTKLDISENKIVILLDYMFQDLYNLKSLEVGDNDLVYISHRAFSGLNSLEQLTLEKCNLTSIPTEALSHLHGLIVLRLRHLNINAIRDYSFKRLYRLKVLEISHWPYLDTMTPNCLYGLNLTSLSITHCNLTAVPYLAVRHLVYLRFLNLSYNPISTIEGSMLHELLRLQEIQLVGGQLAVVEPYAFRGLNYLRVLNVSGNQLTTLEESVFHSVGNLETLILDSNPLACDCRLLWVFRRRWRLNFNRQQPTCATPEFVQGKEFKDFPDVLLPNYFTCRRARIRDRKAQQVFVDEGHTVQFVCRADGDPPPAILWLSPRKHLVSAKSNGRLTVFPDGTLEVRYAQVQDNGTYLCIAANAGGNDSMPAHLHVRSYSPDWPHQPNKTFAFISNQPGEGEANSTRATVPFPFDIKTLIIATTMGFISFLGVVLFCLVLLFLWSRGKG
With B3, in the assay with Fyn kinase, the Fyn phosphorylation entry is recorded as “twofold increases” and the Fyn protein expression entry was “twofold increases”. Also, the “number of mature oligodendrocytes compared with the control” value in the assay with Oligodendrocytes is on record as “increase in the number of mature oligodendrocytes”. The “increase in MBP levels” value in assay [1] (setting [2]) came to 2 fold. Moreover, in assay [1], the “number of myelinating MBP+ cells compared with controls” value is given as “increased the total number of myelinating MBP^+ cells five- to tenfold” and the “MBP in cultures by western blot” value is recorded as “tenfold increase”.
